{"source": "patent US9486502B2", "about": "“Methods of administering interferon gamma to absorb fluid from the subretinal space” (The United States of America, as represented by the …, priority 2008, dated 2016)", "molecules": {"B1": {"name": "IFNγ: pleiotropic cytokine produced by T- and NK-cells; obtained from Peprotech (protein, UniProt P01579 24-161, looked up)", "Interferon gamma": "QDPYVKEAENLKKYFNAGHSDVADNGTLFLGILKNWKEESDRKIMQSQIVSFYFKLFKNFKDDQSIQKSVETIKEDMNVKFFNSNKKKRDDFEKLTNYSVTDLNVQRKAIHELIQVMAELSPAAKTGKRKRSQMLFRG"}}, "key": {"hfCHC cells": {"tested_on": "hfCHC cells", "experiment": "BrdU incorporation assay, human fetal choroidal cell proliferation", "type": "cell-based"}, "hfRPE cells [1]": {"tested_on": "hfRPE cells", "experiment": "immunoblotting of JAK-STAT / MAP kinase signalling proteins in hfRPE", "type": "cell-based, human", "protocol": "Immunoblotting was performed as previously described in Li, R. et al., 2007, Invest Ophthalmol Vis Sci, 48, 5722-5732, incorporated by reference in its entirety herein. Primary cultures of hfRPE and native human adult RPE cells were lysed using RIPA buffer (Sigma-Aldrich) supplemented with proteinase inhibitor cocktail (Roche). Total protein in the supernatant was measured (BCA™ protein assay, Pierce Biotechnology) and 20 µg of protein from cell lysate supernatants was electrophoresed on a 4-12% gradient Bis-Tris NuPAGE gel (Invitrogen) under reduced or non-reduced conditions. Resolved proteins were transferred to nitrocellulose membranes (membranes and XCell II™ Blot Module, Invitrogen).\nThe membranes were incubated with mouse anti-human IFNγ R1 monoclonal antibody (R&D Systems), anti-human IFNγ R2 (Santa Cruz Biotechnology), anti-human IFNAR1, anti-human IFNAR2 (Abcam), anti-IRF1, anti-IRF2, anti-IRF8 (Santa Cruz Biotechnology) or anti-CFTR antibody 217 (Cystic Fibrosis Foundation Therapeutics Inc., Bethesda, Md.), after blocking non-specific binding ((StartingBlock™ T20 (TBS), Pierce Biotechnology). Membranes were then incubated with horseradish peroxidase (HRP) conjugated secondary antibody (Pierce Biotechnology) and visualized using Supersignal® West Dura Extended Duration Substrate (Pierce Biotechnology) and imaged using an Autochemie™ system (UVP, Upland, Calif.). The antibody-specific bands for IRF-1, IRF-2, ICSBP (IRF-8) and GAPDH were around 91 kDa, […], respectively.\nFor phosphorylation studies, cells were starved for 24 hours in serum-free medium (“SFM,” MEM-α modification medium containing non-essential amino acids and Glutamine-Penicillin-Streptomycin). Cells were treated with IFNγ (5-50 ng/ml) in SFM at various time points at 37° C. and lysed with RIPA buffer supplemented with proteinase inhibitor cocktail (Roche) and Halt™ phosphatase inhibitor cocktail (Pierce Biotechnology). 40 μg of protein was electrophoresed. As in the immunoblotting experiments described above, except that the membranes were incubated with anti-phospho-p38 MAP kinase (Thr180/Tyr182), anti-p38 MAP kinase, anti-phospho-Stat1 (Tyr701), anti-phospho-Stat1 (Ser727) or anti-Stat1 antibodies, respectively (each from Cell signaling Technology, Danvers, Mass.). The antibody-specific bands for STAT1/phospho-STAT1 (Tyr701) were around 84 kDa. GAPDH was blotted together with anti-GAPDH antibody (Abcam) and used as loading control. Cyclohexamide (“CHX”; Sigma-Aldrich), a protein synthesis inhibitor, was used at 62 μM.\nFor CFTR immunoblotting analysis, confluent monolayers of hfRPE were homogenized on ice in isolation solution (250 mM Sucrose, 10 mM Tris-HCl, 10 mM MgCl2, 1 mM CaCl2, pH 7.4) supplemented with Halt™ protease inhibitor cocktail, EDTA-free. Nuclei and intact cells were removed with centrifugation (900×g for 10 minutes at 4° C., followed by centrifugation at 10,000×g for 5 minutes). Crude plasma membrane proteins were collected after centrifugation at 100,000×g for 1 hour at 4° C."}, "hfRPE cells [2]": {"tested_on": "hfRPE cells", "experiment": "cyclic AMP assay (cAMP-screen ELISA)", "type": "cell-based, human", "details": "IFNγ 0.5, 5, 50 ng/ml, all time points", "protocol": "Intracellular cAMP levels were assayed with a cAMP-screen ELISA system (Applied Biosystems) following the manufacturer's protocol. Briefly, confluent monolayers of hfRPE cells cultured in 24-well plates were starved in SFM for 4 hours and then treated with IFNγ (0.5, 5, and 50 ng/ml), forskolin (10 μM), or forskolin (10 μM) and isobutylmethylxanthine (IBMX; 0.5 mM) for 5 minutes, 30 minutes, 4 hours, 16 hours, or 24 hours. For some of the experiments, cells were treated with IBMX (0.5 mM) for 30 minutes, and then IFNγ or forskolin was added. Cells were lysed and the supernatant collected after centrifugation. Samples were incubated with anti-cAMP antibody and cAMP-AP in a 96-well assay plate; serial dilutions of cAMP served as standards. The plate was incubated with substrate and the chemiluminescence signal measured with a SpectraMax M2 microplate reader (Molecular Devices). The standard curve was obtained by best fit with a weighted 4-parameter logistic curve and the cAMP concentration was calculated and normalized with total protein concentration."}}, "note": "Entries after “also recorded” stand apart in the source; their conditions may differ.", "data": [{"molecule": "B1", "values": [{"measurement": "effect on hfCHC (human fetal choroidal) cell proliferation", "setting": "hfCHC cells", "result": "stimulatory effect"}, {"measurement": "STAT1 tyrosine phosphorylation", "setting": "hfRPE cells [1]; IFNγ 5 ng/ml, 15 minutes", "result": "tyrosine phosphorylated"}, {"measurement": "IRF-1 protein", "setting": "hfRPE cells [1]; IFNγ 4 hours", "result": "activated; also recorded: significantly increased"}, {"measurement": "IRF-2 protein", "setting": "hfRPE cells [1]; IFNγ 4 hours", "result": "unaffected; also recorded: no effect"}, {"measurement": "IRF-8 (ICSBP) protein", "setting": "hfRPE cells [1]; IFNγ-treated hfRPE", "result": "below the detection limit; also recorded: no detectable change"}, {"measurement": "effect on CFTR protein level", "setting": "hfRPE cells [1]; IFNγ-treated hfRPE, not statistically significant", "result": "small decrease"}, {"measurement": "STAT1 protein signal", "setting": "hfRPE cells [1]; after IFNγ treatment", "result": "significantly increased; also recorded: significantly up-regulated"}, {"measurement": "effect on JNK or P44/P42 phosphorylation", "setting": "hfRPE cells [1]; all six time points tested", "result": "no effect"}, {"measurement": "period over which IFNγ-induced phosphorylation of STAT1 was observed", "setting": "hfRPE cells [1]; hfRPE", "result": "2 to 48", "unit": "h"}, {"measurement": "time to IFNγ-induced phosphorylation of P38 MAPK", "setting": "hfRPE cells [1]; hfRPE, serum starved 24 hours", "result": "2 to 5", "unit": "min"}, {"measurement": "effect on total intracellular cAMP", "setting": "hfRPE cells [2]", "result": "no apparent effect"}]}]}
